Tested on: MS2 coat protein
Test: apparent KD of MS2 coat protein; designed switch direction (-1 OFF switch, 1 ON switch): 1; higher = weaker reporter binding
Summary of the method: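 An oligonucleotide input, 200 uM small-molecule ligand, or no input was present during titration of SNAP-549-labelled MS2 coat protein, which was doubled from 0.7 or 1.5 nM to 3 µM. Designed RNA switches had been transcribed on Illumina chips by stalled E. coli RNA polymerase. Apparent KD per design is the median over clusters of curves fitted to normalised cluster fluorescence.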

[1] = input ligand: microRNA oligo, concentration not stated
[2] = Eterna round: R95, input ligand: FMN 200 uM
[3] = Eterna round: R95, input ligand: microRNA oligo, concentration not stated
[4] = Eterna round: R95, input ligand: none

| Sequence | apparent KD of MS2 coat protein (input ligand: FMN 200 uM) [nM] | apparent KD of MS2 coat protein [1] [nM] | apparent KD of MS2 coat protein (input ligand: none) [nM] | apparent KD of MS2 coat protein [2] [nM] | apparent KD of MS2 coat protein [3] [nM] | apparent KD of MS2 coat protein [4] [nM] |
| --- | --- | --- | --- | --- | --- | --- |
| GGUGCCAAUAAAGCCUACAUGAGGAUCACCCAUGUAUGUAGGCAGGAUAUCGUUUGCUUUGCAAACGAGAAGGGCUGAGGCACC [JL SSNG3 1.18] (Eterna round: R96, puzzle: Same State NG 3) | 16.8 | 28.6 | 38.6 |  |  |  |
| GGUGCGAAAUAAGCCUACAUGAGGAUCACCCAUGUAUGUAGGCAGGAUAUCGUAUGCAAAGCAUACGAGAAGGGCUGUCGCACC [Mat - Same State NG 3 - JL Mod - D48] (Eterna round: R96, puzzle: Same State NG 3) | 33.2 | 61 | 94.6 |  |  |  |
| GGUGGCGAAAGCGACAUGAGGAUCACCCAUGUCAUCGGAGGGCAGGAUAUCCGGCGAAAGCCGAAGGAGAAGGGUCGAAAAGAA [ssng3v2 b] (Eterna round: R96, puzzle: Same State NG 3) | 62.4 | 25.8 | 43.6 |  |  |  |
| GGUGGGUUGCUGCCGGCACAUGAGGAUCACCCAUGUUUUGGGAAGGAUAUGGUACCUAUUUGGUACCAGAAGGUCCCGUUGGUG [salish99_SSNG3_r04_709] (Eterna round: R96, puzzle: Same State NG 3) | 978 | 449 | 898 |  |  |  |
| GGUGGGUUGCUGCCGGCACAUGAGGAUCACCCAUGUUUUGGGAAGGAUAUGGUCCCUCUUUGGUGCCAGAAGGUCCCGUUGGUC [salish99_SSNG3_r04_715] (Eterna round: R96, puzzle: Same State NG 3) | 232 | 75.3 | 165 |  |  |  |
| GGUGGGUUGCUGCCGGCACAUGAGGAUCACCCAUGUUUUGGGAAGGAUAUGGUCCCUCUUUGGUGCCAGAAGGUCCCGUUGGUG [salish99_SSNG3_r04_714] (Eterna round: R96, puzzle: Same State NG 3) | 691 | 402 | 743 |  |  |  |
| GGUUUAGUCAAGUGCCGUUGCACUUGAAAACAUGAGGAUCACCCAUGUUUGGGACAAGCUUUGCUCCUCGUCUUUCC [Tiatmaraen] (puzzle: Sensor for hsa-mir-208a) |  |  |  | 477 | 66.3 | 591 |
| GGUUUAGUCAGGCACAAUUGCGCCUGAAAACAUGAGGAUCACCCAUGUUUGGGACAAGCUUUGCUCCUCGUCUUGCA [Enzati] (puzzle: Sensor for hsa-mir-208a) |  |  |  | 306 | 68.1 | 385 |
| GUAAAACAUGAGGAUCACCCAUGUCAACAAAGUCGAGGAUAUGGGCAAAUAAAAUAAGAACCAGAAGGCGAAUAAG [salish99_SS1_r3_009] (Eterna round: R96, puzzle: Same State 1) | 45.9 | 125 | 235 |  |  |  |
| GUAAAACAUGAGGAUCACCCAUGUCAACAAAGUCGAGGAUAUGGGCAAAUAAAAUAAGAACCAGAAGGCGAAUAAG [salish99_SS1_r3_009] (puzzle: Same State 1) |  |  |  | 44 | 703 | 1290 |
| GUAGAUAUAGAGGAGGAUAUUCGAUGAGGAACAUGAGGAUCACCCAUGUAAGAGAGAGAUGAUGAGAAGAAGGCUUAGAGGGAUG [Altered State 2-4 - Jieux - Same State 2] (puzzle: Same State 2) |  |  |  | 25.1 | 35.8 | 36.4 |
| GUAGCAUACCGAGGAUAUUCAUAAAAUAAAUAAACAUGAGGAUCACCCAUGUGGCGAAAGCCUUGGGAGAAGGCGGAAUGCUAC [Xeonanis - 20 Mod73] (Eterna round: R96, puzzle: Same State NG 2) | 20 | 370 | 359 |  |  |  |
| GUAGCAUACCGAGGAUAUUCAUAUAAUACAUGAGGAUCACCCAUGUUAAAUAGGCGAAAGCCUUGGGAGAAGGCGGAAUGCUAC [Xeonanis - 20 Mod66] (Eterna round: R96, puzzle: Same State NG 2) | 10.5 | 13 | 17.1 |  |  |  |
| GUAGCAUACCGAGGAUAUUCAUAUAAUAUUACAUGAGGAUCACCCAUGUAUAGGCGAAAGCCUUGGGAGAAGGCGGAAUGCUAC [Xeonanis - 20 Mod61] (Eterna round: R96, puzzle: Same State NG 2) | 13.2 | 24.9 | 28.6 |  |  |  |
| GUAGCAUACCGAGGAUAUUCAUAUACAUGAGGAUCACCCAUGUUAAAUAAUAGGCGAAAGCCUUGGGAGAAGGCGGAAUGCUAC [Xeonanis - 20 Mod70] (Eterna round: R96, puzzle: Same State NG 2) | 10.3 | 9.72 | 12.6 |  |  |  |
| GUAGCAUACCGAGGAUAUUCAUAUUACAUGAGGAUCACCCAUGUUAUAUAGGCCAAAAGGCCUUGGGAGAAGGCGGAAUGCUAC [Xeonanis - 20 Mod9] (Eterna round: R96, puzzle: Same State NG 2) | 10.3 | 9.73 | 14.7 |  |  |  |
| GUAGCAUACCGAGGAUAUUCAUUACAUGAGGAUCACCCAUGUUUAUUAUAGGCCAAAAGGCCUUGGGAGAAGGCGGAAUGCUAC [Xeonanis - 20 Mod12] (Eterna round: R96, puzzle: Same State NG 2) | 8.36 | 8.47 | 10.7 |  |  |  |
| GUAUAACAUGAGGAUCACCCAUGUCAACAAAGUCGAGGAUAUGGGCAUAUAAUAUAUGAACCAGAAGGCGAAUAUG [Mat - Same State 1 - Mod of UCT - D36] (puzzle: Same State 1) |  |  |  | 34.2 | 37.9 | 56.7 |
| GUAUAACAUGAGGAUCACCCAUGUCAUCUAAGUCGAGGAUAUGGGCAAAUAUAAUAAGAACCAGAAGGCGAAUAUG [Mat - Same State 1 - Mod of UCT - D34] (puzzle: Same State 1) |  |  |  | 57.8 | 111 | 119 |
| GUAUCUACAGGUUGCAAUGCUCGUCGGAUACAUGAGGAUCACCCAUGUUAUAGCCCUGUGCUUGCGCAGGGCUGAUU [Sensor for hsa-mir-208a ( MOD of Tearor )] (puzzle: Sensor for hsa-mir-208a) |  |  |  | 46.8 | 39.4 | 49.5 |
| GUCGGCCUGUCGUGCUGAGGUGAUAGUUAACAUGAGGAUCACCCAUGUUGCUGUCGGGUCGUUGGGAGUUUUCUUCG [Modxample 117 - Jieux - Sensor for bsa-mir-208a] (Eterna round: R96, puzzle: Sensor for hsa-mir-208a) | 71.2 | 50.8 | 62.4 |  |  |  |
| GUGAAGAAUUAAGGAUAUCGAGUCAAGAUGUUAAACAUGAGGAUCACCCAUGUGGGUUGCGGUAUCGAGAAGGUAAAUUACAGG [salish99_SSNG2_r04_502] (Eterna round: R96, puzzle: Same State NG 2) | 25.9 | 21.1 | 31.7 |  |  |  |
| GUGAAGAAUUAAGGAUAUUGAAUACAUAUGUUUAACAUGAGGAUCACCCAUGUGGGUUGCGGUAUCGAGAAGGUAAAUUACUAG [salish99_SSNG2_r04_031] (Eterna round: R96, puzzle: Same State NG 2) | 95.5 | 89.9 | 118 |  |  |  |
| GUGCAACCGUGUGAGGAUAUCGGUGAAUAGACAUGAGGAUCACCCAUGUCCGAAGCUCGGUUCUCCGAGAAGGCGCACAGUUGCA [Same State 2 - Mod of Erisin v.5] (puzzle: Same State 2) |  |  |  | 42.8 | 41.5 | 52.4 |
| GUGGAGAAUUAAGGAUAUCGAGUCAAGAUGUUAAACAUGAGGAUCACCCAUGUGGGUUGCGGUAUCGAGAAGGUAAUUUACGGG [salish99_SSNG2_r04_505] (Eterna round: R96, puzzle: Same State NG 2) | 22.4 | 21.3 | 36.8 |  |  |  |
| GUGGUCAGACAUGAGGAUCACCCAUGUGGAAUAAAUAAGGAAAAGGAUAUCGAAUAUAGGAUAUACGAGAAGGUUUGGUUGGUG (Eterna round: R96, puzzle: Same State NG 3) |  | 73.6 |  |  |  |  |
| GUGGUCAGACAUGAGGAUCACCCAUGUGGAAUAAAUAAGGAAAAGGAUAUGGAAUAUAGGAUAUACCAGAAGGUUUGGUUGGUG (Eterna round: R96, puzzle: Same State NG 3) |  | 83 |  |  |  |  |

From the supplement of paper PMC9170038
